Results on three molecules are retold here after article PMC6511879 (Nucleic Acids Research, 2019).

Assay [1] has as its target T1, CtKti12 (also ChKti12), full length (Thermochaetoides thermophila, UniProt G0SHI1).
T1 sequence (G0SHI1 1-378): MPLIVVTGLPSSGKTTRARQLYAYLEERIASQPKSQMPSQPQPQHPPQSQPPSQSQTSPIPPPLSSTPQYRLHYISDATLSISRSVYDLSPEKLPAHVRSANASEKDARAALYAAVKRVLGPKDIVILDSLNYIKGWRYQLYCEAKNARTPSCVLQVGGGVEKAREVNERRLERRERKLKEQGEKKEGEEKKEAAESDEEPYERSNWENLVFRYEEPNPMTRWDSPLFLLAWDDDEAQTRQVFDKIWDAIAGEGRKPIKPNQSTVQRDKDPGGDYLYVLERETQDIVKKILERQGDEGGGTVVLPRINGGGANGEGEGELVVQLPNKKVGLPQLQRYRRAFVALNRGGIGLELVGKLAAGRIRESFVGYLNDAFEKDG
The conditions noted are these: 1 mM ATP; 2 mM MgCl2; pH 7.5.

Assay [2] concerns the target T2, CtKti12NTD (Thermochaetoides thermophila, UniProt G0SHI1).
T2 sequence (G0SHI1 2-252): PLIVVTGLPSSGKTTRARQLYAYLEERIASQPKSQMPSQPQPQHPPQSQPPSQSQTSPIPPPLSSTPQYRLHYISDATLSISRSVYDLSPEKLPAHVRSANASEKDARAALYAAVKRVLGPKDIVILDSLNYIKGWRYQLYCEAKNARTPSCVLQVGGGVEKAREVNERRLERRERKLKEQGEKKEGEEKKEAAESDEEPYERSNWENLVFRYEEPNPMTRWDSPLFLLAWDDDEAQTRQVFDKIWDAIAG
As to the kind of experiment: X-ray crystal structure, […] Å. It is filed as binding. The conditions noted are these: bound as ADP·AlF3 with Mg2+, transition state mimic; nucleotide site.

The target in assay [3] is T3, Full length GST-ScElp1 (Saccharomyces cerevisiae, UniProt Q06706 1-1349).
T3 sequence (looked up): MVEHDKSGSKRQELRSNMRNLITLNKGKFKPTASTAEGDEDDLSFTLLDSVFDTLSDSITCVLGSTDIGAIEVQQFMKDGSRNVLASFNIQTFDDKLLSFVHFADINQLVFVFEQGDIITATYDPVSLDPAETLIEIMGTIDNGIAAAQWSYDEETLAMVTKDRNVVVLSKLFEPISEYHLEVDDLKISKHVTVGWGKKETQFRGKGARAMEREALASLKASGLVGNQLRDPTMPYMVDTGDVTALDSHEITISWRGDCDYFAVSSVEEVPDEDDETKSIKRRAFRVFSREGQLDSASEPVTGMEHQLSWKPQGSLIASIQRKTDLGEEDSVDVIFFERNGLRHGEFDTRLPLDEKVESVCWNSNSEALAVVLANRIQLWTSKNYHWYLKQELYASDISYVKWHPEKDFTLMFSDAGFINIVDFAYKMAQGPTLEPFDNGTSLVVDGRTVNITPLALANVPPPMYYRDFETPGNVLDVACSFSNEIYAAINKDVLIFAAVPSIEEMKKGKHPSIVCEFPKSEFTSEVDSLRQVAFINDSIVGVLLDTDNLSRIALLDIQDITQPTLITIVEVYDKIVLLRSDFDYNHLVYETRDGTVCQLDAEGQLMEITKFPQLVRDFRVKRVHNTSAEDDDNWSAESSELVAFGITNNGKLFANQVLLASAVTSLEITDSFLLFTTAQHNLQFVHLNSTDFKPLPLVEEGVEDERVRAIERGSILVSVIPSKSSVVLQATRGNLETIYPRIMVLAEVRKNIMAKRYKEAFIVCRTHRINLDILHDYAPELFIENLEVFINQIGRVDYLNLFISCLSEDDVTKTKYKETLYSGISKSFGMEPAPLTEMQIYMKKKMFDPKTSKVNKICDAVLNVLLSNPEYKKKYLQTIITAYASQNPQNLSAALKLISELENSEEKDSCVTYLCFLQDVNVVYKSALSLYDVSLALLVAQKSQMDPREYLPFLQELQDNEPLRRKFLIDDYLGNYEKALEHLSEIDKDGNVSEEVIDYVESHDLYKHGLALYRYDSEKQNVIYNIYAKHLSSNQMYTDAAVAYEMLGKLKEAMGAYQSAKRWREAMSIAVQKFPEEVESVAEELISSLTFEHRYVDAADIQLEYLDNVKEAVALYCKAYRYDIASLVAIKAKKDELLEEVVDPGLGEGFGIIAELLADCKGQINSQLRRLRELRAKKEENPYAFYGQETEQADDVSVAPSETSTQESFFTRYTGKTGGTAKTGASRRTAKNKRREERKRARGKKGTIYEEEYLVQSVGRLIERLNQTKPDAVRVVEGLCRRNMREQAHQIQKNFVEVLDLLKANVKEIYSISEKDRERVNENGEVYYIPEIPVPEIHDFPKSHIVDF
As to the kind of experiment: pull-down.

Assay [4] concerns the target T4, GST-ScElp1 first WD40 domain (aa 42-431) (Saccharomyces cerevisiae, UniProt Q06706 42-431).
T4 sequence (looked up): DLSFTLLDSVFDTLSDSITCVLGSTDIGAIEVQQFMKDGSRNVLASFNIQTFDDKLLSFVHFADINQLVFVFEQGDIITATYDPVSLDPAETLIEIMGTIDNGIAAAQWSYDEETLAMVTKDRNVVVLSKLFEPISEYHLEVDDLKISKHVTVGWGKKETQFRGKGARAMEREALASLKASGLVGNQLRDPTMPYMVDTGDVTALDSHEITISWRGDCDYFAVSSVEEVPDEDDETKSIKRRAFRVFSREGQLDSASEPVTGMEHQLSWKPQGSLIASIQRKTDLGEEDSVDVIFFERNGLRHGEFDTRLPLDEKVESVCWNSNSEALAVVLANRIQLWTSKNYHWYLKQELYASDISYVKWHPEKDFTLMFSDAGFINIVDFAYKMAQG
As to the kind of experiment: pull-down.

Assay [5] concerns the target T5, GST-ScElp1 first and second WD40 domains (aa 1-734) (Saccharomyces cerevisiae, UniProt Q06706 1-734).
T5 sequence (looked up): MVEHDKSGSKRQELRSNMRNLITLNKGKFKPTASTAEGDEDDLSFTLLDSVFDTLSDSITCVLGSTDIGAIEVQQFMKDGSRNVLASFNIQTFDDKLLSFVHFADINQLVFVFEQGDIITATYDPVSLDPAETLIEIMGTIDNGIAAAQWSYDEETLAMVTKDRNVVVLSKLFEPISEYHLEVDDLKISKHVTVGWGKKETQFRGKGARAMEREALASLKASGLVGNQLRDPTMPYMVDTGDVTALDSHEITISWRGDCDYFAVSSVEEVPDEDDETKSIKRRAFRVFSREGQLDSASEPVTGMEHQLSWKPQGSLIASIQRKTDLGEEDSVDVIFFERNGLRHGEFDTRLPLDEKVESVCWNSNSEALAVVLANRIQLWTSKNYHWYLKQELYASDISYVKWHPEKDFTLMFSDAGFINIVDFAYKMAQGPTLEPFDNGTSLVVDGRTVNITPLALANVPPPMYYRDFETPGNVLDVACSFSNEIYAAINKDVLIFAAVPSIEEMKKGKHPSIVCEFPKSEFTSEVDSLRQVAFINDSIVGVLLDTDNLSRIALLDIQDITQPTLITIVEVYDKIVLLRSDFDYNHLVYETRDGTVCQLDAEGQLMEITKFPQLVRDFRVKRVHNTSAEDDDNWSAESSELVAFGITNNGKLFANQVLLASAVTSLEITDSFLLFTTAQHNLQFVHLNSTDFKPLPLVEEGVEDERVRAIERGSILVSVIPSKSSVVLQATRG
As to the kind of experiment: pull-down.

Regarding `Nc1ncnc2c1ncn2[C@@H]1O[C@H](COP(=O)(O)OP(=O)(O)OP(=O)(O)O)[C@@H](O)[C@H]1O` [ATP], the dTm result in assay [1] was “addition of ATP contributed to an increased thermostability of CtKti12 and ScKti12 in vitro”.
On to `Nc1ncnc2c1ncn2[C@@H]1O[C@H](COP(=O)(O)OP(=O)(O)O)[C@@H](O)[C@H]1O` [ADP], for which the “X-ray crystal structure, 2.4 Å” value in assay [2] is reported as “We solved the structure of CtKti12NTD in complex with ADP·AlF3”.

B1: ScKti12-6xHis (Saccharomyces cerevisiae Kti12, wild type) (natural protein)
chain: MPLVLFTGYPCSGKTTLAKHLVQLLQSKIDATPSLSKYSITYHSDESLGIKHSDYITSQDERKLRSEIISAVKRDLSKNKIVIVDSLNYIKGFRYQLHCEVKNLSTTFCVIQTLCPPETIFEWNKTSNPNPWEPELLNQLIQRYEEPNSSNRWDSPLFAILTPQDNITDYIDDICKVVFQTSKSAKNSGHNDPLSKGLQKPNSATVLKPASQSNFIQVLDIETSKIIKTIMNHIKSLTSIGGVSNGTRVIVSEGITDINDDGCFFVDLPIGNVVTLAQLQRLKRQFINFNKLRDIDQDRIGPLFADYLNKNLN
For the molecule B1, the binding result in assay [3], in assay [4] and in assay [5] was “binds” throughout.
